The values below come from paper PMC3835166 (Journal of molecular biology, 2012).

T1: full-length human metavinculin (human, UniProt P18206 1-1134)
T1 sequence (looked up): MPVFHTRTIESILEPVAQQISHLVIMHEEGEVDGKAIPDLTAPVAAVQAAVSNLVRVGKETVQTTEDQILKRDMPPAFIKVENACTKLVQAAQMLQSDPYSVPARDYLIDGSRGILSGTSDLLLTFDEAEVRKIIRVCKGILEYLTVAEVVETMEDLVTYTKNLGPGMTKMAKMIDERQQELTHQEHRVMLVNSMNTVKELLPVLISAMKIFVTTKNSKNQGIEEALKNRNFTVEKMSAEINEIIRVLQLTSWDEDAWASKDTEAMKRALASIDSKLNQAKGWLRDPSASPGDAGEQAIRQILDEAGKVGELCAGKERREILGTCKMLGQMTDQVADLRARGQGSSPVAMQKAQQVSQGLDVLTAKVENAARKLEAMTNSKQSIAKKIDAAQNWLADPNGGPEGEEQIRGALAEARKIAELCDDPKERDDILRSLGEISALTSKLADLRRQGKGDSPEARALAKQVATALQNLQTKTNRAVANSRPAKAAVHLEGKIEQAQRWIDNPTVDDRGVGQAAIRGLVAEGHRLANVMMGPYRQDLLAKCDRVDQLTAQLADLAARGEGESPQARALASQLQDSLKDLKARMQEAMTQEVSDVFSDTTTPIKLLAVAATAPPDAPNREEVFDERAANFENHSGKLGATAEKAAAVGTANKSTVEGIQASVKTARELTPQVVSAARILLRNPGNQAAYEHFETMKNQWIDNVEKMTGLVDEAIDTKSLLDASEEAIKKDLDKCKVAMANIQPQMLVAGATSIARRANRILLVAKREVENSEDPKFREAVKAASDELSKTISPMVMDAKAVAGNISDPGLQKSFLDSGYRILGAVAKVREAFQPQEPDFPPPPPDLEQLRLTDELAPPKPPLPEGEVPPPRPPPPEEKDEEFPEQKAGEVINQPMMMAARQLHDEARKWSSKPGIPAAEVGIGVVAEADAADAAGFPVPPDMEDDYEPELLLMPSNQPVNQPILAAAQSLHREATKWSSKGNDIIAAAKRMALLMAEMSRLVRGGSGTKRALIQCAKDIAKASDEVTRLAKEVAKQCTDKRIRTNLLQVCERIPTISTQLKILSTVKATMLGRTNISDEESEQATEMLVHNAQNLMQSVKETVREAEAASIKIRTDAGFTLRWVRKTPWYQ

T2: raver1 RRM2-RRM3 (UniProt Q8IY67 129-321)
T2 sequence: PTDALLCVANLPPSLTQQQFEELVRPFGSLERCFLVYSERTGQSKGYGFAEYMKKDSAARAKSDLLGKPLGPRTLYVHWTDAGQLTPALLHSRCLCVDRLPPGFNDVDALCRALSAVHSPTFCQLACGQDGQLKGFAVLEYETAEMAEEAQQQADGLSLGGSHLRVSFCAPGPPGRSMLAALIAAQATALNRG

T3: raver1 RRM1-3 (UniProt Q8IY67 39-321)
T3 sequence: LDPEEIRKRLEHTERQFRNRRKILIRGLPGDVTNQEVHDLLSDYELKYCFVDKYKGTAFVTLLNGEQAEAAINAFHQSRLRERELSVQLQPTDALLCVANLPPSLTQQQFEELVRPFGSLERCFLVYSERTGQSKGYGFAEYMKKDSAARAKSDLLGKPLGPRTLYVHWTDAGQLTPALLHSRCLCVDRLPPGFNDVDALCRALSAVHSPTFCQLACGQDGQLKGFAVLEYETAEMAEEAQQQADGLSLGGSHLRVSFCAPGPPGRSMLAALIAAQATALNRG

B1: raver1 RRM1-3 domains (residues 39-321) (domain or fragment, human, UniProt Q8IY67 39-321, looked up)
chain: T3 sequence
B2: MVt (metavinculin tail domain, residues 856-1134) (domain or fragment, human, UniProt P18206 856-1134, looked up)
chain: DELAPPKPPLPEGEVPPPRPPPPEEKDEEFPEQKAGEVINQPMMMAARQLHDEARKWSSKPGIPAAEVGIGVVAEADAADAAGFPVPPDMEDDYEPELLLMPSNQPVNQPILAAAQSLHREATKWSSKGNDIIAAAKRMALLMAEMSRLVRGGSGTKRALIQCAKDIAKASDEVTRLAKEVAKQCTDKRIRTNLLQVCERIPTISTQLKILSTVKATMLGRTNISDEESEQATEMLVHNAQNLMQSVKETVREAEAASIKIRTDAGFTLRWVRKTPWYQ

In data set [1] the target is T1, full-length human metavinculin. Put plainly: native gel or EMSA. In general terms: A gel shift assay detects complexes by their altered migration in electrophoresis.
In data set [2] the target is B1. The data set can be described thus: native gel or EMSA.
Data set [3] addresses metavinculin tail MVt;raver1 RRM1-3 (Homo sapiens;Homo sapiens?, UniProt P18206;Q8IY67 856-1134;39-321, |). The data set can be described thus: EMSA.
The target of another data set is T2, raver1 RRM2-RRM3. Put plainly: EMSA.
A further data set concerns the target T3, raver1 RRM1-3. The data set can be described thus: EMSA.

As to B1, the binding result in data set [1] is given as “binds”.

For B2, the binding result in data set [2] was “binds”.

Regarding UCAUGCAGUCUG (ssRNA) [vinculin RNA 3089-3100], the binding result in data set [3] was “binds”; in the data set with raver1 RRM2-RRM3, “no binding”; with raver1 RRM1-3, “binds”.
